Source: IntAct's records for PubMed 38123684

B1: cAMP-regulated phosphoprotein 19 (Homo sapiens), P56211 (parent)
chain: MSAEVPEAASAEEQKEMEDKVTSPEKAEEAKLKARYPHLGQKPGGSDFLRKRLQKGQKYFDSGDYNMAKAKMKNKQLPTAAPDKTEVTGDHIPTPQDLPQRKPSLVASKLAG
partner: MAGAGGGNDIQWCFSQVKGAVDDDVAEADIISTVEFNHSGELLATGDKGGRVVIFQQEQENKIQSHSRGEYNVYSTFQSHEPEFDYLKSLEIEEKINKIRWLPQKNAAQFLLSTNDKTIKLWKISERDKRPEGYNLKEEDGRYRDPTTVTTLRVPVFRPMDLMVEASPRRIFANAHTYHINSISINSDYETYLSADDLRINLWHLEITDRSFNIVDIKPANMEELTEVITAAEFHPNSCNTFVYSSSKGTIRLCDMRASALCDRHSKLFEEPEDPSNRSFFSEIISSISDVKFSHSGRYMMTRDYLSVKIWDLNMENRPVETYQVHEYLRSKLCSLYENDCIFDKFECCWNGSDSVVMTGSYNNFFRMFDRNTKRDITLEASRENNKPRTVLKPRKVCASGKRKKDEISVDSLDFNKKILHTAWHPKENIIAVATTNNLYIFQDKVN

Variants of: B1
Settings: with 2aba_human PPP2R2A

| effect of a mutation on the interaction | Variant |
| --- | --- |
| with no effect | S62E |
